Data taken from patent US20180327500A1.

How the values were obtained:
[1] = target: human MET Fc fusion protein (R&D Systems) (human) (UniProt P08581); experiment: BLI; MET-Fc saturated with antibody at 80 ug/ml (533 nM), then HGF as competitor at 20 ug/ml
[2] = target: human MET ECD construct with AA 129-143 exchanged to mouse sequence, on HEK293 cells (human); experiment: flow cytometry on transfected HEK293 cells, normalised to 5D5 binding at 3 ug/ml
[3] = target: human MET ECD construct with H209 mutated to mouse sequence, on HEK293 cells (human) (UniProt P08581); experiment: as above

Row | Binder | % HGF binding inhibition [1] [%] | % binding compared to 5D5 [2] [%] | % binding compared to 5D5 [3] [%]
1 | 13-MET antibody analog (antibody, from another filing, IgG1, V domains shown) VH: QVQLKESGPALVKPTQTLTLTCTFSGFSLSTSGMVVSWIRQPPGKALEWLAFISWDDDKYYSTSLKTRLTISKDTSKNQVVLTMTNMDPVDTATYYCAREPGRYGGYYFDYWGQGTLVTVSS VL: DIQMTQSPSSLSASVGDRVTITCRASQTISHYLAWYQQKPGKAPKLLIYAASILQSGVPSRFSGSGSGTDFTLTISSLQPEDFAVYYCQQYSGFPVTFGQGTKVEIKR | 81 |  | 
2 | 28-MET antibody analog (antibody, from another filing, IgG1, V domains shown) VH: QVQLQESGPGLVKPGETLSLTCTVSGGSISGYYWSWIRQAPGKGLEWIGEIYYAGSTLYNPSLKGRVTISVDTSKNQFSLKLSSVTAEDTAVYYCARHYGLDWFGDTGMDVWGQGTLVTVSS VL: DIELTQPPSVSVAPGQSITISCSGDNLGDKYVHWYQQKPGQAPVLVIYDDNERPSGIPERFSGSNSGNTATLTISGTQAEDEADYYCSAYGSHSGTVFGGGTKLTVLG | 50 |  | 
3 | 36C4 antibody analog (antibody, from another filing, IgG1, V domains shown) VH: QVQLVESGPGLVKPSQTLSLTCAVSGGSITTNYYYWSWIRQSPGKGLEWMGVIAYDGSTDYSPSLKSRTSISRDTSKNQFSLQLSSVTPEDTAVYYCARDVRVIATGWATANALDAWGQGTLVTVSS VL: QSVLTQPPSVSGSPGKTVTISCAGTSSDVGYGNYVSWYQQLPGTAPKLLIFAVSYRASGIPDRFSGSKSGNTAFLTISGLQSEDEADYYCASYRSSNNAAVFGGGTHLTVL | 74 | 58 | 43
4 | 223C4 antibody analog (antibody, from another filing, IgG1, V domains shown) VH: EVLLQQSGPELVKPGASVKIPCKASGYTFTDYNMDWVKQSHGMSLEWIGDINPNNGGTIFNQKFKGKATLTVDKSSSTAYMELRSLTSEDTAVYYCARGRYVGYYYAMDYWGQGTSVTVSS VL: DIQMTQSPASLSVSVGETVTITCRASENIYSNLAWYQQKQGKSPQLLVYAATNLVDGVPSRFSGSGSGTQYSLKINSLQSEDFGSYYCQHFWGPPYTFGGGTKLEIK | 69 |  | 
